In patent publication US11325966:

How the values were obtained:
Experiment in all cases: cell-based or functional assay
[1] = target: HIV-1 Env of pseudovirus 1056_10_TA11_1826 (HIV-1)
[2] = target: HIV-1 Env of pseudovirus 191084 B7-19 (HIV-1)
[3] = target: HIV-1 Env of pseudovirus 211-9 (HIV-1)
[4] = target: HIV-1 Env of pseudovirus 3103.v3.c10 (HIV-1)
[5] = target: HIV-1 Env of pseudovirus 3365.v2.c2 (HIV-1)
[6] = target: HIV-1 Env of pseudovirus 3415.v1.c1 (HIV-1)
[7] = target: HIV-1 Env of pseudovirus 3817.v2.c59 (HIV-1)
[8] = target: HIV-1 Env of pseudovirus 620345.c01 (HIV-1)
[9] = target: HIV-1 Env of pseudovirus 6240_08_TA5_4622 (HIV-1)
[10] = target: HIV-1 Env of pseudovirus 6545.v4.c1 (HIV-1)
[11] = target: HIV-1 Env of pseudovirus 89-F1_2_25 (HIV-1)
[12] = target: HIV-1 Env of pseudovirus 928-28 (HIV-1)
[13] = target: HIV-1 Env of pseudovirus A07412M1.vrc12 (HIV-1)
[14] = target: HIV-1 Env of pseudovirus C4118.c09 (HIV-1)
[15] = target: HIV-1 Env of pseudovirus CAP210.2.00.E8 (HIV-1)
[16] = target: HIV-1 Env of pseudovirus CNE30 (HIV-1)
[17] = target: HIV-1 Env of pseudovirus CNE5 (HIV-1)
[18] = target: HIV-1 Env of pseudovirus CNE8 (HIV-1)
[19] = target: HIV-1 Env of pseudovirus Ce0393_C3 (HIV-1)
[20] = target: HIV-1 Env of pseudovirus Ce1086_B2 (HIV-1)
[21] = target: HIV-1 Env of pseudovirus Ce2060_G9 (HIV-1)
[22] = target: HIV-1 Env of pseudovirus Ce704809221_1B3 (HIV-1)
[23] = target: HIV-1 Env of pseudovirus Du156.12 (HIV-1)
[24] = target: HIV-1 Env of pseudovirus HIV-0013095-2.11 (HIV-1)
[25] = target: HIV-1 Env of pseudovirus HIV-16055-2.3 (HIV-1)
[26] = target: HIV-1 Env of pseudovirus HIV-16845-2.22 (HIV-1)
[27] = target: HIV-1 Env of pseudovirus P0402_c2_11 (HIV-1)
[28] = target: HIV-1 Env of pseudovirus PVO.4 (HIV-1)
[29] = target: HIV-1 Env of pseudovirus Q259.d2.17 (HIV-1)
[30] = target: HIV-1 Env of pseudovirus Q461.e2 (HIV-1)
[31] = target: HIV-1 Env of pseudovirus RHPA4259.7 (HIV-1)
[32] = target: HIV-1 Env of pseudovirus SC05_8C11_2344 (HIV-1)
[33] = target: HIV-1 Env of pseudovirus T255-34 (HIV-1)
[34] = target: HIV-1 Env of pseudovirus T257-31 (HIV-1)
[35] = target: HIV-1 Env of pseudovirus THRO4156.18 (HIV-1)
[36] = target: HIV-1 Env of pseudovirus TRO.11 (HIV-1)
[37] = target: HIV-1 Env of pseudovirus ZM233M.PB6 (HIV-1)
[38] = target: HIV-1 Env of pseudovirus ZM247v1(Rev-) (HIV-1)
[39] = target: HIV-1 Env of pseudovirus ZM249M.PL1 (HIV-1)

B1: 10-1074 (antibody, V domains shown)
VH: QVQLQESGPGLVKPSETLSVTCSVSGDSMNNYYWTWIRQSPGKGLEWIGYISDRESATYNPSLNSRVVISRDTSKNQLSLKLNSVTPADTAVYYCATARRGQRIYGVVSFGEFFYYYSMDVWGKGTTVTVSS
VL: SYVRPLSVALGETARISCGRQALGSRAVQWYQHRPGQAPILLIYNNQDRPSGIPERFSGTPDINFGTRATLTISGVEAGDEADYYCHMWDSRSGFSWSFGGATRLTVL
IC50 in TZM-bl assay [1]: 0.038 µg/mL
IC80 in TZM-bl assay [1]: 0.168 µg/mL
IC50 in TZM-bl assay [2]: 0.026 µg/mL
IC80 in TZM-bl assay [2]: 0.108 µg/mL
IC50 in TZM-bl assay [3]: 0.065 µg/mL
IC80 in TZM-bl assay [3]: 0.403 µg/mL
IC50 in TZM-bl assay [4]: 0.024 µg/mL
IC80 in TZM-bl assay [4]: 0.061 µg/mL
IC50 in TZM-bl assay [5]: 0.057 µg/mL
IC80 in TZM-bl assay [5]: 0.2 µg/mL
IC50 in TZM-bl assay [6]: > 10 µg/mL
IC80 in TZM-bl assay [6]: > 10 µg/mL
IC50 in TZM-bl assay [7]: 0.706 µg/mL
IC80 in TZM-bl assay [7]: 4.49 µg/mL
IC50 in TZM-bl assay [8]: > 10 µg/mL
IC80 in TZM-bl assay [8]: > 10 µg/mL
IC50 in TZM-bl assay [9]: 0.038 µg/mL
IC80 in TZM-bl assay [9]: 0.131 µg/mL
IC50 in TZM-bl assay [10]: > 10 µg/mL
IC80 in TZM-bl assay [10]: > 10 µg/mL
IC50 in TZM-bl assay [11]: > 10 µg/mL
IC80 in TZM-bl assay [11]: > 10 µg/mL
IC50 in TZM-bl assay [12]: 0.616 µg/mL
IC80 in TZM-bl assay [12]: 2.4 µg/mL
IC50 in TZM-bl assay [13]: 0.011 µg/mL
IC80 in TZM-bl assay [13]: 0.037 µg/mL
IC50 in TZM-bl assay [14]: > 10 µg/mL
IC80 in TZM-bl assay [14]: > 10 µg/mL
IC50 in TZM-bl assay [15]: > 10 µg/mL
IC80 in TZM-bl assay [15]: > 10 µg/mL
IC50 in TZM-bl assay [16]: 0.261 µg/mL
IC80 in TZM-bl assay [16]: 0.678 µg/mL
IC50 in TZM-bl assay [17]: > 10 µg/mL
IC80 in TZM-bl assay [17]: > 10 µg/mL
IC50 in TZM-bl assay [18]: > 10 µg/mL
IC80 in TZM-bl assay [18]: > 10 µg/mL
IC50 in TZM-bl assay [19]: > 10 µg/mL
IC80 in TZM-bl assay [19]: > 10 µg/mL
IC50 in TZM-bl assay [20]: > 10 µg/mL
IC80 in TZM-bl assay [20]: > 10 µg/mL
IC50 in TZM-bl assay [21]: > 10 µg/mL
IC80 in TZM-bl assay [21]: > 10 µg/mL
IC50 in TZM-bl assay [22]: 0.084 µg/mL
IC80 in TZM-bl assay [22]: 0.395 µg/mL
IC50 in TZM-bl assay [23]: 0.01 µg/mL
IC80 in TZM-bl assay [23]: 0.036 µg/mL
IC50 in TZM-bl assay [24]: > 10 µg/mL
IC80 in TZM-bl assay [24]: > 10 µg/mL
IC50 in TZM-bl assay [25]: > 10 µg/mL
IC80 in TZM-bl assay [25]: > 10 µg/mL
IC50 in TZM-bl assay [26]: 0.727 µg/mL
IC80 in TZM-bl assay [26]: 3.93 µg/mL
IC50 in TZM-bl assay [27]: 0.008 µg/mL
IC80 in TZM-bl assay [27]: 0.024 µg/mL
IC50 in TZM-bl assay [28]: 0.072 µg/mL
IC80 in TZM-bl assay [28]: 0.252 µg/mL
IC50 in TZM-bl assay [29]: > 10 µg/mL
IC80 in TZM-bl assay [29]: > 10 µg/mL
IC50 in TZM-bl assay [30]: > 10 µg/mL
IC80 in TZM-bl assay [30]: > 10 µg/mL
IC50 in TZM-bl assay [31]: 0.023 µg/mL
IC80 in TZM-bl assay [31]: 0.083 µg/mL
IC50 in TZM-bl assay [32]: 0.017 µg/mL
IC80 in TZM-bl assay [32]: 0.048 µg/mL
IC50 in TZM-bl assay [33]: > 10 µg/mL
IC80 in TZM-bl assay [33]: > 10 µg/mL
IC50 in TZM-bl assay [34]: > 10 µg/mL
IC80 in TZM-bl assay [34]: > 10 µg/mL
IC50 in TZM-bl assay [35]: > 10 µg/mL
IC80 in TZM-bl assay [35]: > 10 µg/mL
IC50 in TZM-bl assay [36]: 0.011 µg/mL
IC80 in TZM-bl assay [36]: 0.039 µg/mL
IC50 in TZM-bl assay [37]: 0.058 µg/mL
IC80 in TZM-bl assay [37]: 0.371 µg/mL
IC50 in TZM-bl assay [38]: 0.042 µg/mL
IC80 in TZM-bl assay [38]: 0.146 µg/mL
IC50 in TZM-bl assay [39]: > 10 µg/mL
IC80 in TZM-bl assay [39]: > 10 µg/mL
